Source: PMC3561947

Molecular target: His-tagged human polι P680A (pJRM86) (human)
Experiment: far-Western, overlay or dot blot

percent of wild type (% of wild type): 40
Substance: in vitro translated 35S-labeled ubiquitin (from pBP129) (from UniProt P0CG47 1-76) (natural protein)
